Results: patent US5731183
Each block holds one molecule with its values, some of them ahead of it.

What was measured:
dimethylcasein [1] = target: dimethylcasein
dimethylcasein [2] = target: dimethylcasein; remark: listed apart in the source
dimethylcasein [3] = target: dimethylcasein; remark: listed apart in the source

Relative Activity (14C-putrescine bonded to dimethylcasein, 37° C., 30 minutes) (relative activity) (dimethylcasein [1]): 10200
Molecule: Bacillus subtilis AJ12866-derived transglutaminase (enzyme)

TG activity (dpm) (14C-putrescine caught by dimethylcasein) (dimethylcasein [2]): 496 dpm
Molecule: fused protein of an 11-residue lacZ-derived peptide and the Bacillus-derived TG, expressed from pBSTG75-11 in Escherichia coli JM109 (enzyme)

relative TG activity (14C-putrescine bonded to dimethylcasein, 37° C., pH 7.5) (dpm/mg/30 min) (dimethylcasein [3]): 25000
B1: Bacillus subtilis AJ1307-derived transglutaminase (enzyme)
chain: MIIVSGQLLRPQDIENWQIDQNLNPLLKEMIETPVQFDYHSIAELMFELKLRMNIVAAAKTLHKSGAKFATFLKTYGNTTYWRVSPEGALELKYRMPPSKAIRDIAENGPFYAFECATAIVIIYYLALIDTIGEDKFNASFDRIILYDWHYEKLPIYTETGHHFFLGDCLYFKNPEFDPQKAQWRGENVILLGEDKYFAHGLGILNGKQIIDKLNSFRKKGALQSAYLLSQATRLDVPSLFR
